Reference: the nanobody polyreactivity screen of Harvey et al. (2022)

Assay: yeast display, Sf9 membrane polyspecificity reagent, FACS + sequencing; frameworks hold sequencing errors
Procedure, shortened: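 A synthetic nanobody library was expressed on Saccharomyces cerevisiae BJ5465 by galactose induction for 36–48 hours. The library was stained for 1 hour at 4 °C with 10% biotinylated, detergent-solubilized Sf9 membrane reagent and enriched with streptavidin microbeads before FACS. Low and high (top ~1%) gates were set on anti-HA fluorescence for expression and streptavidin fluorescence for reagent binding, and each polyreactivity label reflects the gate of origin.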

Sequence	polyreactivity (PSR sort gate)
QVQLVESGGGLVQAGGSLRLSCAASGSIFAYYAMGWYRQAPGKERELVAYISRSGGITYYADSVKGRFTLSRDNAKNTVYLQMNSLKPVDTAVDYCAARYSVRPISIYPFDFGYWGQGTQVTVSS	low polyreactivity
QVQLVESGGGLVQAGGSLRLSCAASGFIFVDYVMGWDIQAPGKERELVAAISERGTGTYYADSVKRRFTISRDKAKNTVYLQMNSLKPEDTAVYYCATLGTGWWNCAYYYWGQGTQVTVSS	low polyreactivity
QVQLVESGGGLVQSGGSLRLSCAASGFIFPVYTLGWYRHAPGKERELDAAITQIGGSTHYADSVKGRFTISRDNAKNTVYLQMNSLKPEDTAVFYCKAVPSYGTEYDYWGQGTQVTVSS	low polyreactivity
QVQLVESGGGLVQAGGSLRLSCAASGLTFTTYAMGWYRPAPGKERELVASIRTGGSTNYADSVKGRFTISRDNAKNTVYLQMNSLKPEETAVYYCAAGRRIDKRYEYWGQGTQFTVSS	low polyreactivity
QVQLEESGGGLVQAGGSLRLSCAASGSIIAGYAMGWYRQAPGKERELVAAISQRGTSTYYADSVKGRFTISRDNAKNTVYLQMNSLKPEDTAVYYCAARVVSRMDYWGQGTQVTVSS	high polyreactivity
QVQLVESGGGLVQAGGSLRLSCAASGRTFRSNVMRWYRQAPGKERELVASITWSGGTTYYADSVKGRFTISRDNAKNTVYLQMNSLKPEDTAVYYCNAADERSQGWVGYDHWGQCTQVTVSS	low polyreactivity
QVQLVESGGGLVQAGGSLRLSCAASGITFSGYDMGWYRQAPGKERELVADITISTGSTYYADSVKGRFTISRDNAKNTVYLQMNSLKPEDTAVYYCAADWQQDRTVVLPSWGHAYDSWGQGTQVTVSS	low polyreactivity
QVQLVESGGGLVQAGGSLRLTCAASGFIFEHYAMGWYRQAPGKERELVARISWRGGSTYYADSVKGRFTISRDNAKNTVYFQMNSLKPEDTAVYYCNAQEVVYFGYYPSDYWGQGTQVTVSS	low polyreactivity
QVQLVESGGGLVQAGGSLRLSCAASGSIFYWYAMGWYRQAPGKERELVAAIDISDDTYYADSVKGRFTISRDNAKNTVYLQMNSLKPEDTAVYYCAARTTRWFYEYDWGQGTQVTVSS	high polyreactivity
QVQLVESGGGLVQAGGRLRLSCAASGIIIDYYTMGWYRQAPGKERELVAAINKSGGSTYADSVKGRFTISRDNAKNTVYLQMNSLKPEDTAVYYCAAEVDYSYWPEYARKYYYWGQGTQVTVSS	low polyreactivity
QVQLVESGGRLVQAGGSLRLSCAASGRTFYGYAMGWYRQAPGKEREFVAAISVGGGSTYYADSVKGRFTISRDKAKNTVYLQMNSLKPEDTAVYYCAAYTRYWSYGYWGQGTQVTVSS	high polyreactivity
QVQLVESGGGLVQAGGSLRLSCAASGFIFWSYAMGWYRQAPGKERELVAAISWSGGRTYYADSVKGRFTISRDNAKNTVYLQMNSLKPEDTAVYYCAAVIRYGSQYPALDYWGQGTQVTVSS	high polyreactivity
QVQLVESGGGLVQAGGSLRLSCAASGFTFPYYAMGWYRQAPGKERELVAAISQGGASTRYADSVKGRFTISRDNAKNTVYLQMNSLKPEDTAVYYCAAKSRHFWMDYWGQGTQVTVSS	high polyreactivity
QVQLVESGGGLVQAGGSLRLNCAASGSIFDDYAMGWYRQAPGKERELVAAINIRTGSTYYADSVKGRFTISRDNAKNTVYLQMNSLKPEDTAVYYCNRVVRGFVRHLDYWGQGTQVTVSS	low polyreactivity
QVQLGDSGGGLVQAGGRLGLSCAASGSTFGRYAMGWYRPAPGKERELVAAISSSGGRTYYADSVKGRFTISRDNAKNTVYLQMNSLKPEDTAVYYCASDARFRQKYEYWGQGTQVTVSS	high polyreactivity
QVQLVVSGGGLVQAGGSLRLSCAASGYIFDYNAMGWYIQSPGKERELVAAINWSGGSTYYADSVKGRFTISRDNAKNTVYLQMNSLKPEDTAVYYCNKLIYGIYYPERYAYDYWGQGTQVTVSS	low polyreactivity
QVQLVESGGGLVQAGGSLRLSCAASGNTFRSYVMGWYRQAPGKERELVADISSGDGTNYADSVKGRFTISRDNAKNTVYLQMNSLKPEDTAVYYCAAEWSEESDYWGQGTQVTVSS	low polyreactivity
QDQHVESGGGLVQAGGSLRLSCAASGSIFVTNAMGWCRQARGKERELVAAISVSGGSTYYADSVKGRFTISRDNAKHTVYLQMTSLKPEDTAVYYCNTVRSPPGHDSWGQGTQVTVSS	low polyreactivity
QVHLVESGGGLVQAGGSLRLSCADSGSTFKNYAMGWYRPAPGKERELVATITKRGGSTYYADSVKGRFTISRDNAKNTVYLQMKSMKPEDTAVYYCAAAPNGPRYRDRFDYWGQGNQVTVSS	high polyreactivity
QVQLVESGGGLVQAGGSLRLSCAASGSTFAQNTMGWYRQAPGKERELVATISDGGGSTYYADSVKGRFTISRDNAKNTVYLQMNSLKPDDTAVYYCNTDRFWPSDYWGQGTQVTVSS	low polyreactivity
QVQLVESGGGLVQAGGSLRLSCAASGSLFGVNAMGWYRQAPGKERELVASISLSDDRTYYADSVKGRFTISRDIAKNTDYLQMNSLKPEDTAVYYCARRLLWYWDVDPSLAEYDYWGQGTQVTVSS	low polyreactivity
QVQLVESGGGLVQAGGSLRLSCAASGLIFNRYVMGWYRQARGKERELVAAITCSGDSTYYADSVKGRFTISRDNAKNTVYLQMNSLKPVDTAVYYCAAWDYRYTDREGDYWGPGTQVTVSS	high polyreactivity

Sequence	polyreactivity (PSR sort gate)
QVQLVESGGGLVQAGGSLRLSCAASGSTFTFYAMGSYRQAPGKERELGAAINGRGGSTYYADSVKGRFTISRDNANNTVYLQMNSLKPEDTADYYCATRLYYSVRYNMGYWGQGTQVTVSS	high polyreactivity
QVQLVESGGGLVQAGGSLRLSCAASGRTFYVYAMGWYRHAPGKERELVASIRRSGGITYYADSVKGRFTISRDNAKNTVYLQMNSLKPEDTAVYYCNARRGPGRREYDYWGQGTQVTLSS	high polyreactivity
QVQLVESGGGLVQAGGSLRLSCAASGSIFNRYAMGWYRQAPGKERELVAAISTHTGTTYYADSVKGRFTISRDNAKNTDYLQMNSLKPEDTAGYYCAKRSRYGYGKSYDYWGQGTQVTVSS	high polyreactivity
QVQLVESGGGLVQAGGSLRLSCAASGSTFNRYAMGWYRQAPGKERELVAAISGSGSSTYYADSVKGRFTISRDNAKNTVYLQMNSLKPEDTAVYYCAAVRYEYDYWGQGTQVTVSS	high polyreactivity
QVQLVESGGGLVQAGGSLRLSCAASGIISYLYAMGCYRQAPGKEREWVAVIRTSDAITYYADSVKGRFTISRDNAKNTVYLQMNSLKPQDTAVYYCAAAGYAWWGEYEYWGQGTLVTVSS	high polyreactivity
QVQLVESGGGLVQAGGSLRLSCAPSGRIFSINAMGWYRQAPGKERELVAAITSGGSTKYADSVKGRFTISRDNAKNTVYLQMNSLKPEDTAVYYCAAAPGYLYWKVDYNYWGQGTQVTVSS	high polyreactivity
QVQLVESGGGLVQAGGSLRLSCAASGFIFVRNTRGWYRQAPGKERELVATITRRGGSTSYADSVKGRFTISRDNAKNTVYLQMNSLKPEDTAVYYCNARSVYGSKQEEYWGQGTQVTVSS	high polyreactivity
QVQLVESGGGLVQAGGSLRLSCAASGLTFIEYAMGWYRQAPGKERELVAAISSGGRTYYADSVKGRFTISRDNPKNTVYLQMNSLKPEDTAVYYCNDRGYRRWYNYWGQGTQVTVSS	high polyreactivity
QVQLVESGGGLVQAGGSLRLSCAASGSIFFYNTMGWYRQAPGKERELVAAISASGGRTYYADSVKGRFTISRDNAKNTVYLQMISLKPEDTAVYYCAVRVPYRGYTRYDYWGQGTQVTVSS	high polyreactivity
QVQLVESGGGLVQAGGSLRLSCAASGLIFRPYAMGWSRQAPGKERELVAAITSGGSTDYADSVKGRFTISRDNAKNTVYLQMNSLKPEDTAVYYCNADIYPHDGYPWQGDYDYWGQGTQVTVSS	low polyreactivity
QVQLVESGGGLVQAGGRLRLSCAASGRTFPYYVMGWYRQAPGKERELVAVIRWRGGSTYYADSVKGRFTISRDNAKNTVYLQMNSLKPEDTAVYYCAARRHIVVATYDRRYDYWGQGTQVTVSS	low polyreactivity
QVQLVESVGVLVQAGARLRLSCAASGSIFRTNTMGSYRQAPVKERELVAAITAIGDSTYYGDSVKGRFTISRDNAKNTVYLQMNSLKPEDTAVYYCAAEKVSWGYHFYSSSDYWGQATQVTVSS	low polyreactivity
QVQLVESGGGLVQAGGSLRLSCAASGLTFSIYAMGWYRQAPGKERELVAAISSTGSTNYADSVKGRFTISRDNAKNTVYLQMNSLKPEDTAVYYCAAELQPSPVGGIIQYGFDYWGQGTQVTVSS	low polyreactivity
QVQLVESGGGIVQAVGSLRLSCAASGFTLERYAMVWYRPAPGKERELVAAITQSGVSTYYADSVKGRFTISRDNAKNTVYLQMNSLKPEDTAVYYCNALRIYHHYEYDYWGQGTQVTVSS	high polyreactivity
QVQIVESGGGLVQAGGSLRLTCAASGYIFKYYAMGWYRQAPGKERELVAAITIGGNTNYADSVKGRFTISRDNAKNTVYLQMNSLKPEDTAVYYCATGGYYSAIVYGGYDYWGQGTQVTVSS	low polyreactivity
QVQLVESGGGLVQAGGSLRLSCAASGRIFYAYVMGWYRQAPGKERELVAAITSSGGSTYYADSVKGRFTISRDNAKNTVYLQMNSLKPEDTAVYYCNARSYPRWLRYDYWGQGTQVTVSS	low polyreactivity
QVQLVESGGGLVQAGGSLRLSCAASGRTFYTNAMGWYRQAPGKERELVAAIDGGGTTYYADSVKGRFTISRDNAKNTVYLQMNSLKPEDTAVYYCNADVFGLKQTAFDYWGQGTQVTVSS	low polyreactivity
QVQLEESGGGLVQAGGSLRLSCAASGSIFYVYAIGSYRQAPRKERELVAAISQSGGNTYYADSVKGRFTISRDNAKNTVYLQMNSLKPEDTAVYYCNAVYYYYAGNYWGQGTQVTVSS	high polyreactivity
QVLLVEAGGGLVHAGGSLRLSCAASGLIFGYYAMRWYRQAPWKERELVAAISFSGGSSYYADSVKGRFTISRDNAKNTDSLQMNSLKPEDTAVYYCAADLDGSSEYEYWGQGTQVNVSS	low polyreactivity
QVQHVESGGGLVQAGGSLRLSCAASGGIFPTYVMGWYRQAPGKERELVAAIDRNGTSTTYADSVMGRFTISRDNAKNTVYLQMNSLKPEDTAVYYCAAGYNDQTTAYDYWGQGTQVTVSS	low polyreactivity
PVQLVESGGGLVQAGGSLRLSCAASGFISQDNAMGWYRQAPAKERELVATISGSGGITYYADSVKGRFTISRANAKTTVYVQMNSLKPEDTAVYYCNNEISYLSWGYDYWGQGTQVTVSS	low polyreactivity
